IntAct's records for PubMed 23685356

B1: Homeobox-containing protein 1 (Homo sapiens), Q6NT76 (parent)
chain: MLSSFPVVLLETMSHYTDEPRFTIEQIDLLQRLRRTGMTKHEILHALETLDRLDQEHSDKFGRRSSYGGSSYGNSTNNVPASSSTATASTQTQHSGMSPSPSNSYDTSPQPCTTNQNGRENNERLSTSNGKMSPTRYHANSMGQRSYSFEASEEDLDVDDKVEELMRRDSSVIKEEIKAFLANRRISQAVVAQVTGISQSRISHWLLQQGSDLSEQKKRAFYRWYQLEKTNPGATLSMRPAPIPIEDPEWRQTPPPVSATSGTFRLRRGSRFTWRKECLAVMESYFNENQYPDEAKREEIANACNAVIQKPGKKLSDLERVTSLKVYNWFANRRKEIKRRANIEAAILESHGIDVQSPGGHSNSDDVDGNDYSEQDDSTSHSDHQDPISLAVEMAAVNHTILALARQGANEIKTEALDDD
partner: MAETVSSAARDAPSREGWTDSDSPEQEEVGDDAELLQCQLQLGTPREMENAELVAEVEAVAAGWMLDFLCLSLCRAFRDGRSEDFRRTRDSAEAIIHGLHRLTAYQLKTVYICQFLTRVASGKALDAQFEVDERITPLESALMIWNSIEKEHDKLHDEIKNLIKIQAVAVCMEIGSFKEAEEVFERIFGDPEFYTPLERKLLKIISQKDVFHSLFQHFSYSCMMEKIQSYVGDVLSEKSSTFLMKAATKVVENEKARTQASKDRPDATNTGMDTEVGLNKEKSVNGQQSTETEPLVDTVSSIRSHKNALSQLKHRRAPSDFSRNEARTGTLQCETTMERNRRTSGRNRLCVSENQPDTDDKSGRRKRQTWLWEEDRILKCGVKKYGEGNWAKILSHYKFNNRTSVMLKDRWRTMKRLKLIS

Variants of: B1
Details: with terf1_mouse Terf1, P70371
In the case of R339A, the “effect of a mutation on the interaction” value is reported as “disrupting interaction”.
